B1: human LI-cadherin EC1-4 [modified: N-glycans (four modelled on chain A, two on chain B of the crystal structure; sites not printed); N-glycans (four modelled on chain A, two on chain B of the crystal structure; sites not … (parent)
chain: QEGKFSGPLKPMTFSIYEGQEPSQIIFQFKANPPAVTFELTGETDNIFVIEREGLLYYNRALDRETRSTHNLQVAALDANGIIVEGPVPITIKVKDINDNRPTFLQSKYEGSVRQNSRPGKPFLYVNATDLDDPATPNGQLYYQIVIQLPMINNVMYFQINNKTGAISLTREGSQELNPAKNPSYNLVISVKDMGGQSENSFSDTTSVDIIVTENIWKAPKPVEMVENSTDPHPIKITQVRWNDPGAQYSLVDKEKLPRFPFSIDQEGDIYVTQPLDREEKDAYVFYAVAKDEYGKPLSYPLEIHVKVKDINDNPPTCPSPVTVFEVQENERLGNSIGTLTAHDRDEENTANSFLNYRIVEQTPKLPMDGLFLIQTYAGMLQLAKQSLKKQDTPQYNLTIEVSDKDFKTLCFVQINVID

Variants of: B1
Experiment: SEC-MALS
Conditions: with itself; injected at 100 μM; read off a plot

Row | screen value [kDa] | Variant
1 | 51.1 | chain 1 L149A
2 | 52.7 | chain 1 Q382A
3 | 51.5 | chain 1 V188A
4 | 52.4 | chain 1 N349A
5 | 53.6 | chain 1 Y377A
6 | 52.2 | chain 1 N200A
7 | 50.5 | chain 1 I147A
8 | 53.1 | chain 1 N154A
9 | 54.8 | chain 1 L333A
10 | 55.1 | chain 1 F354A
11 | 49.5 | chain 1 F202A

Same assay, conditions: with itself; injected at 50 μM; read off a plot

Row | screen value [kDa] | Variant
12 | 58 | chain 1 F202A
